Reference: patent US20260374871 (published 2026)
Values belong to the binder of their own block, whether it stands above or below them.

Target: human CTLA-4 (human, UniProt P16410)
Assay: BLI

Chain of human CTLA-4 (P16410 36-161): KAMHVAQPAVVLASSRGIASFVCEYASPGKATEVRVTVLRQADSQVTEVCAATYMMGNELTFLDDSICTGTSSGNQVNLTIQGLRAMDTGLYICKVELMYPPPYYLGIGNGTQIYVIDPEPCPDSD

- Kd: 0.155 nM
B1: GBD008-hS005-5 (designed binder)
chain: EVQLVESGGGLVQPGGSLRLSCAASGRTASSNAMAWFRQAPGKEREFVSAISATGGLTAYADSVKGRFTISRDNSKNTLYLQMNSLRAEDTAVYIGAVGRERWYLRHTENEYDYWGQGTLVTVSS

- Kd: 0.269 nM
B2: GBD008-hS005 (designed binder)
chain: QVQLVESGGGLVEAGGSLRLSCATSGRTASSNAMAWFRQAPGKEREFVAAISATGGLTAYADSVKGRFTISRDNSKNAVYLQMNTLKPEDTAVYIGAVGRERWYLRHTENEYDYWGRGAQVTVSS
